The record followed here is the nanobody polyreactivity screen of Harvey et al. (2022).

A short description of this data set: yeast display, Sf9 membrane polyspecificity reagent, FACS + sequencing; frameworks hold sequencing errors. In outline: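 Sorting gates, low and high (top ~1%), were placed on anti-HA fluorescence to track expression and on streptavidin fluorescence to track reagent binding. A clone's polyreactivity label is taken from the gate it came out of. The reagent was 10% biotinylated, detergent-solubilized Sf9 membrane, applied for 1 hour at 4 °C to galactose-induced yeast display cells.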
Consider “QVQLVESGGGLVQAGGSLRLSCAASGSTFIPNAMGWYRQAPGKERELVAAITYRGGRTYYADSVKGRFTISRDNAKYTVYLQLNSLKPEDTAVYYCAADFWYNQVRFYYWGQGTQVTVSS”, for which the “polyreactivity (PSR sort gate)” value is on record as “high polyreactivity”.

Regarding “QVQLVESGGGLVQAGGSLRLSCAASGRIFRYNAMGWYRQAPGKERELVASISSGTSTTYADSVKGRFTISRDYAKNTVYLQMNSLKPEDTAVYYCAAVPSYRGYRGGYSNLWYYYWGQGTQVTVSS”, the “polyreactivity (PSR sort gate)” value is “high polyreactivity”.

As for “QVQLVESGGALVQAGGSLRLSCAASGITFLYYAMGWYRQAPGKERELVAAISGGGASTYYADSVKGRFTISRDNAKNTVYLQMNSLKPEDTAVYYCAAGYRDFFRARFGYWGQGTQVTVSS”, the “polyreactivity (PSR sort gate)” value was “high polyreactivity”.

For “QVQLVESGGGLVQAGGSLRLSCAASGSTFYGNDMGWYRQAPGKERELVAAISSGGSTNYADSVKGRFTISRDNAKNTVYLQMNSLKPEDTAVYYCAADDTPDTISGSDYWGQGTQVTVSS”, the “polyreactivity (PSR sort gate)” value is on record as “low polyreactivity”.

For “QVQLVESGGGLVQAGGSLRLSCAASGRTFGGYTIGWSRQAPGKERELVAAIRWSGGRTYYADSVKGRFTISRDNAKNTVYLQMNSLKPEDTAVYYCNARYVFPYYWGQGTQVTVSS”, the “polyreactivity (PSR sort gate)” value is given as “high polyreactivity”.

Regarding “QVQLVESGGGLVQAGGSLRLSCAASGRIFGTYAMGWYRQAPGKEREFVAAITSSGGNTYYADSVKGRFTISRDNAKNTVYLQMNSLKPEDTGVYYCNARPLYRHYITRFDYWGQGTQVTVSS”, the “polyreactivity (PSR sort gate)” value is on record as “high polyreactivity”.

As to “QVQLVESGGGLVQAGGSLRLSCAASGSIFVPYTMGWYTQAPGKERELVASISYSGGTTYYADSVKGRFTISRDNAKNTVYLQMNSLKPEDTAVYYCAADWDESFSYRRYRHYDYWGQGTQVTVSS”, the “polyreactivity (PSR sort gate)” value was “low polyreactivity”.

For “QVQLVESGGGLVQAGGSLRLSCAASGSIFQYTMGWYRQAPVKEMELVAAITRSGSSTYYADSVKGRFTISRDNAKNTVYLQMNSLKPEDTAVYYCAHNIRRVLGYGSWGQGTQVTVSS”, the “polyreactivity (PSR sort gate)” value is reported as “high polyreactivity”.

“QVQLVESGGGLVQAGGSLRLSCDASGSIFIPYAMGWYRQAPGKERELVAAISGSGTSTNYADSVKGRFTISRDNAKNTVYLQMNSLKPEDTAVYYCAARLPYGYLRSKFYYWGQGTQVTVSS”: the “polyreactivity (PSR sort gate)” value is on record as “high polyreactivity”.

For the sequence “QVQLVESGGGLVQAGGSLRLSCAASGFIFRQYAMGWYIQAPGKERELVAAITWSGTRTYYADSVKGRFTISRDNAKNTVYLQMNSLKPEDTAVYYCNAGYPKYGYDYWGQGTQVTVSS”, the “polyreactivity (PSR sort gate)” value is “high polyreactivity”.

For “QVQLVESGGGLVQAGGSLRLSCAASGRTFYRYAMGWYRQAPGKERELVASITRDGRTNYADSVKGRFTISRDNAKNTVYLQMNSLKPEDTAVYYCNAKHKITHSSSDYWGQGTQVTVSS”, the “polyreactivity (PSR sort gate)” value was “high polyreactivity”.

In the case of “QVQLVESGGGLVQAGGSLRLSCAASGRIFRYYAMGWYRQAPGKERELVAAISTSGDTTYYADSVKGRFTISRDNAKNTVYLQMNSLKPEDTAVYYCAKPIAPARNAYPAYDYWGQGTQVTVSS”, the “polyreactivity (PSR sort gate)” value is “high polyreactivity”.

For the sequence “QVQLVESGGGLVQAGGSLRLSCAASGSTFSVYAMGWYRQAPGKERELVAAITWSGGSTYYADSVKGRFTISRDNAKNTVYLQMNSLKPEDTAVYYCAARYGRIHWKANWPEYGYWGQGTQVTVSS”, the “polyreactivity (PSR sort gate)” value is “low polyreactivity”.

On to “QVQLVESGGGLVQAGGSLRLSCAASGSTFAGNAMGWYRQAPGTDRELVAAIDSSTGSTYYADSVKGRYTISRDNAKNTVYLHMNSLKPEDTAVYYCNKTSFLVTLDYWGQGTQVTVSS”, for which the “polyreactivity (PSR sort gate)” value is reported as “low polyreactivity”.

“QVQLVESRVGLVQAGGSLRLSCAASGRIFHYYAMGWYRQAPGKERELVAAINASGTSTYYADSVKGRFTISRDNAKNTVYLQMNSLKPEDTAVYYCAAQPYYRGGSYSYTRNSKLIYWGQGTQVTVSS”: the “polyreactivity (PSR sort gate)” value is reported as “high polyreactivity”.

For the sequence “QVQLVESGGGLVQAGGSLRLSCAASGFIFLGNAMGWYRQAPGKERELVAAISSGGSTYADSVKGRFTISRDNAKNTVYLQMNSLKPEDTAVYYCNTEDYTQYEPGYYPPNYYWGQGTQVTVSS”, the “polyreactivity (PSR sort gate)” value is on record as “low polyreactivity”.

For the sequence “QVQLVESGGGLVQAGGSLRISCAASGFILKDNAMGWYRQAPGKERELFAAISSGGGTYYADSEKGRFTITRDNAKNTVYLQMNSLNPEDTAVYYCNGDDLYSLNDSSEDYWGQGSQVTVSS”, the “polyreactivity (PSR sort gate)” value is given as “high polyreactivity”.

Take “QVQLVESGGGLVQARGSLRLSCAASGRTFFNNAMGWYRQAPGKERELVAGISVTTGSTYYADSVKGRFTISRDNAKNTVYLQMNSLKPEDTAVYYCAARRKQYYAAYRYYYWGQGTQVTVSS”: the “polyreactivity (PSR sort gate)” value is reported as “high polyreactivity”.

In the case of “QVQLVESGGGLVQAGGSLRLSCAASGRTFTYYAMGWSRQAPGKERECVSAISSTGTSTYYADSVKGRFTISRDNAKNTVYLQMNSLKPEDTAVYYCNARVATYRLHSKFYYWGQGTQVTVSS”, the “polyreactivity (PSR sort gate)” value is “high polyreactivity”.

In the case of “QVQLVESGGGLVQAGGSLRLSCAASGSTFSYYAMGWYRQAPGKERELVAAISGRGGSTYYADSVKGRFTISRDNAKNTVYLQMNSLKPEDTAVYYCAKGRLYTAYGLYSWGQGTQVTVSS”, the “polyreactivity (PSR sort gate)” value is recorded as “high polyreactivity”.

As to “QVQLVESGGGLVQAGGSLRLSCAASGSTFFRNAMGWYRQAPGKERELVAAISKSGTSTYYADSVKGRFTISRDNAKNTVYLQMNSLKPEDTAVYYCAKYGFSYPQSYAYYYWGQGTQVTVSS”, the “polyreactivity (PSR sort gate)” value is “high polyreactivity”.

“QVQLVESGGGLVQAGGSLRLSCAASGSTFAGYAMGWYRQAPGKERELVAAISRGGRTYYADSVKGRFTISRDNAKNTVYLQMNSLKPEDTAVYYCAKYSAWYTYTYDYWGQGTQVTVSS”: the “polyreactivity (PSR sort gate)” value is “high polyreactivity”.

As for “QVQLVESGGGLVQAGGSLRLSCAASGRTFTPYTMGWYRQAPGKEREFVAAITFRGGSTYYADSVKGRFTLSRDNAKNTVYLQMNSLKPEDTAVYYCNARGHGGWGTSMYYWGQGTQVTVSS”, the “polyreactivity (PSR sort gate)” value is listed as “high polyreactivity”.

“QVQLVESGGGLVQAGGSLRISCAASGSIFDPYAMGWYRQAPGKERELVAAITSGGSTYYADSVKGRFTISRDNAKNTVYLQMNSLIPEDTAVYYCAKDFDIYYSKYDYWGQGTQVTVSS”: the “polyreactivity (PSR sort gate)” value was “low polyreactivity”.

“QVQLVESGGGLVQAGGSLRLSCAASGFTFSRNAMGWYRQAPGKERELVAAIDSGGSTDYADSVKGRFTISRANAKKTVYLQMNSLKPEDTAVYYCAKASSATRYVQLRQDYDYWGQGTQVTVSS”: the “polyreactivity (PSR sort gate)” value is given as “low polyreactivity”.

For the sequence “QVQLVESGGGKVQAGGSLRLSCAASGRTFWVYAMGWYRPAPGKERELVASISWSVGSTYYADSVKGRFTISRDNAKNTVYLQMNSLKPEDTAVYYCAADPSPYGDEYDYWGQGTQVTVSS”, the “polyreactivity (PSR sort gate)” value is recorded as “low polyreactivity”.

With “QVQLVESGGGLVQAGGSLRLSCAPSGRTFGSNTMGLYRQAPGKEIELVAGITFSSGSTYYADSVKGRFTISRDNANNTVYLQMNSLKPEDTAVYDCAVRNASKNRKYYYWGQGTQVTVSS”, the “polyreactivity (PSR sort gate)” value is “high polyreactivity”.

For “QVQLVESGGGLVQAGGSLRLSCAASGLTFGYYAMGWYRPAPGKEREFVAAISKSGGGTYYADSVKGRFTISRDNAKNTVYLQMNSLKPEDTAVYYCAARWFVGYNYWGQGTQVTVSS”, the “polyreactivity (PSR sort gate)” value is listed as “high polyreactivity”.

For “QVQLVESGGGLVQAGGSLRLSCAASGFIFVPNAMGWYRQAPGNERELVAAIRSSGGTTYYADSVKGRFTISRDNAKNTVYLQMNSLKPEDTAVYYCAAKYTSRLNSGYSNYYWGQGTQVTVSW”, the “polyreactivity (PSR sort gate)” value is recorded as “high polyreactivity”.

Take “QVQLVESGGGLVQAGGSLRLSCAGSGLIFRIYAMGWYTQAPGKEREFVAAIRWRGGSTYYADSVKGRFTISRDNAKNTVYLQMNSLKPEDSAVYYCAVRYCPYRPRLDYWGQGTQVTVSS”: the “polyreactivity (PSR sort gate)” value is listed as “high polyreactivity”.

With “QVQLVESGRGLFQAGGSLRISCAASGSTYQFYAMGWYRQAPGIERELVASIRVRSGTTYYADSVKGRFTISRDNAKNTVYLQMNSLKPEDTAVYYCASGRPYYGRKYDYWGQGTQVTVSS”, the “polyreactivity (PSR sort gate)” value is “high polyreactivity”.

“QVQLVESGGGLVQAGGSLRLSCAASGSTFHQNTMGWYRQAPVKEREMVAAISWTGGGTYYADSVKGRYTISRDNAKNTVYLQMNSLKPEDTAVYYCAADYSDFWGFRYYYWGQGTQVNVSS”: the “polyreactivity (PSR sort gate)” value is recorded as “low polyreactivity”.

With “QVQLVESGGGLVQAGGSLRLSCAASGSPFRTYAIGWYRQAPGKERELVASIDSTGSTNYADSVKGRFTISRDNAKNTVYLQMNCLKAEVTAVYYCAAETYSYPPFYAYDYWGQGTQVTVSS”, the “polyreactivity (PSR sort gate)” value is “low polyreactivity”.

Take “QVQLVESGGGLVQAGGSLRLSCAASGSIISYYAMGWYRQAPGKERELVAAISRGGGRTYYADSVKGRFTISRDNAKNTVYLQMNSLKPEDTAVYYCAVTPVRFASGGAWMDYWGQGTQVTVSS”: the “polyreactivity (PSR sort gate)” value is listed as “high polyreactivity”.

On to “QVQLVESGGGLVQAGGSLSLSCAASGFTFAFYAMGWYRQAPGKERELVAAISWDGVTTYYADSVKGRFTISRDNAKNTVYLQMNSLKPEDTAVYYCAADYPDYAGSFWPSGMYYWGQGTQVTVSS”, for which the “polyreactivity (PSR sort gate)” value is reported as “low polyreactivity”.

As for “QVQLVESGGGLVQAGGSLRLSCAASGFIGWYRQAPGKERELVAAISWRGGRTYYADSVKGRFTISRDNAKNTVYLQMNSLKPEDTAVYYCNAVGNVWGYDSWGQGTQVTVSS”, the “polyreactivity (PSR sort gate)” value was “high polyreactivity”.

In the case of “QVQLQESGGGLVQAGGSLRQSYAASGYIFPSLAMGWYRQAPGKEREFVAAIGRGSTNNYADSVKGRFTISRDNAKNTAYLQMNSLKPEDTAVYYCAAAASPLNRHLYWGQGTQVTVSS”, the “polyreactivity (PSR sort gate)” value is “low polyreactivity”.

Consider “QVQLVESGGGLVQAGGSLRLSCAASGSTFKRYSMGWYRQAPGKERELVASISGRGGGTYYADSVKGRFTISRDNEKNTVYLQMNSLIPEDTAVYYCAAYGRYYGFDYWGLGTQVTVSS”, for which the “polyreactivity (PSR sort gate)” value is recorded as “high polyreactivity”.

On to “QVQLVESGGGLVQAGGSLRLCCAASGFILLDYAKGWYRQAPGNERELVAAISWSGARTYYADSVKRRFTISRDNAKNTVYLQMNSLKPEDTAVYYCATRYRWTPYDYWGQGTQVTVSS”, for which the “polyreactivity (PSR sort gate)” value is on record as “low polyreactivity”.

For the sequence “QVQLVESGGGLVQAGGSLRLSSAASGSTFLYVMGWYRQAPGKERELVAAISESGGSTYYADSVKGRFTISRDNAKNTVYLQMNSLKPEDTAVYYCAADLPTGLQYRYYRVDYWGHGTQVTVSS”, the “polyreactivity (PSR sort gate)” value was “low polyreactivity”.

On to “QVQLVESGGGLVQAGGSLRISCAASGFIFGGYAMGWYRQAPGKERELVAAISYSGGSTYYADSVKGRFTISRDNAKNTVYLQMNSLKPEDTAVYYCAVGYPYRYDYWGQGTQVTVSS”, for which the “polyreactivity (PSR sort gate)” value is reported as “high polyreactivity”.
